Where a chain is given by its changes, count along the chain named.

In experiment [1] the target is T1, B Lymphocyte Stimulator, soluble form (human) (human, UniProt Q9Y275 134-285, biotinylated with NHS-biotin where used as biotinylated B Lymphocyte Stimulator).
T1 construct: Coated on plastic, captured on streptavidin plates, amine-coupled to a CM5 chip or free in solution, depending on the assay; also called BLyS; immobilized B Lymphocyte Stimulator
Put plainly: phage competition ELISA.

The target of a further experiment is T2, Fas ligand (human, UniProt P48023 134-281, limits assumed).
T2 sequence (looked up): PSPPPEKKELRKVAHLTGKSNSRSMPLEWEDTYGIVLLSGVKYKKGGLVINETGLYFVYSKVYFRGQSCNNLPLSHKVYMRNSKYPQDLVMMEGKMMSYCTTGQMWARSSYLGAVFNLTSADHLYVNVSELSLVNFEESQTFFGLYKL
Kind of experiment: phage ELISA.

In a further experiment the target is T3, TRAIL (human, UniProt P50591 114-281).
T3 construct: also called TNF-related apoptosis inducing ligand
T3 sequence (P50591 114-281 limits assumed): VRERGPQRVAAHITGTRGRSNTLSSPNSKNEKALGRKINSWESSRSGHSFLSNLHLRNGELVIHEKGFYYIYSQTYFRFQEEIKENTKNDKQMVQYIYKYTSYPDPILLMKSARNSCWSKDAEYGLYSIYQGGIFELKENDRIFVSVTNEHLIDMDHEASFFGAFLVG
Put plainly: phage ELISA.

Experiment [2] addresses T4, membrane-bound B Lymphocyte Stimulator on U937 plasma membrane preparations (human, UniProt Q9Y275 1-285).
T4 construct: Natural protein in plasma membrane fractions of the human cell line U937 coated on ELISA plates; also called U937 plasma membranes; U937 membranes
Kind of experiment: phage ELISA. Background: ELISA stands for enzyme-linked immunosorbent assay.

The target in another experiment is T5, TNF-beta (human, UniProt P01374 35-205).
T5 construct: also called TNFβ; Tumour Necrosis Factor-beta
T5 sequence (looked up): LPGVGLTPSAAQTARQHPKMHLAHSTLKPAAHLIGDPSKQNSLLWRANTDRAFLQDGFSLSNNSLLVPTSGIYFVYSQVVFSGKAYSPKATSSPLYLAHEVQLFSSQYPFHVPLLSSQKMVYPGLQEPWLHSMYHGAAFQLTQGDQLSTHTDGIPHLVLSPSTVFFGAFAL
Kind of experiment: phage ELISA.

The next experiment deals with T6, TNF-alpha (human, UniProt P01375 77-233).
T6 construct: also called TNFα; TNF-α
T6 sequence (P01375 77-233 limits assumed): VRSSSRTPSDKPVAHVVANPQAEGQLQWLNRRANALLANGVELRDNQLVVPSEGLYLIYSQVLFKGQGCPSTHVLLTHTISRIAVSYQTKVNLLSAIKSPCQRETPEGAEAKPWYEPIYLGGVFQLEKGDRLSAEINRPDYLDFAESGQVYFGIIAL
Put plainly: phage ELISA.

B1: I007B03 (scFv)
scFv: GVQLQQSGAEVKKPGSSVKVSCKASGGTFNTSGITWVRQAPGQGLEWMGWMNPNTGDTAYAQEFQGRVIMTRDTSISTAYMELSSLRSEDTAVYYCARDGSYDILTGYYIDNYMDVWGQGTMVTVSSGGGGSGGGGSGGGGSQSVLTQPASVSGSPGQSITISCTGTSSDVGGYNYVSWYQQHPGKAPKLMIYEGSKRPSGVSNRFSGSKSGNTASLTISGLQAEDEADYYCSSYTTRSTRVFGGGTKLTVLG
B1: the binding result is given as “binds” in experiment [1]; “no binding” with Fas ligand; “no binding” in the experiment with TRAIL; “binds” in experiment [2]; “no binding” with TNF-beta; “no binding” with TNF-alpha.

B2: I008A09 (scFv)
scFv: GVQLVQSGGGVVQPGGSLRLSCAASGFTFSSYGMHWVRQAPGKGLEWVAVISYDGSNKYYADSVKGRFTISRDNSKNTLYLQMNSLRAEDTAVYYCARDREAYYDILTGYYLYYYYMDVWGRGTTVTVSSGGGGSGGGGSGGGGSQSVLTQPASVSGSPGQSITISCTGTSSDVGGYNYVSWYQQHPGKAPKLMIYEGSKRPSGVSNRFSGSKSGNTASLTISGLQAEDEADYYCSSYTTGSTRVFGGGTKLTVLG
B2: the binding result is “binds” in experiment [1]; “no binding” with Fas ligand; “no binding” with TRAIL; “binds” in experiment [2]; “no binding” with TNF-beta; “no binding” in the experiment with TNF-alpha.

B3: I007H08 (scFv)
scFv: QVQLQQSGPGLVKPSQILSLTCAISGDSVASNGAAWNWIRQSPSRGLEWLGRTYYRSKWYVDYAVSVKSRITINPDTSKNQFSLQLNSVTPEDTAVYYCARDRYDILTGYYYYGMDVWGQGTMVTVSSGGGGSGGGGSGGGGSQSALTQPASVSGSRGQSITISCTGTTGDVGGYDYVSWYQQHPGKAPKLLIYGNSNRPSGVPDRFSASKSGNTASLTISGLQAEDEADYFCNTYAPPGIIMFGGGTKLTVLG
Turning to B3, the binding result was “binds” in experiment [1]; “no binding” with Fas ligand; “no binding” with TRAIL; “binds” in experiment [2]; “no binding” in the experiment with TNF-beta; “no binding” with TNF-alpha.

B4: I008A11 (scFv)
scFv: B3 scFv with N234S
As to B4, the binding result is on record as “binds” in experiment [1]; “no binding” with Fas ligand; “no binding” with TRAIL; “binds” in experiment [2]; “no binding” with TNF-beta; “no binding” in the experiment with TNF-alpha.

B5: I017D10 (scFv)
scFv: RVQLVQSGAEVKKPGASVKVSCKASGYTFTSDHISWVRQAPGQGLEWMGWISPHHGKTNYAQKLQGRVTMTTDTSTSTAYMELRSLRSDDTAVYYCARVQMDSEYYDLLTGINVGPYYFDYWGKGTLVTVSSGGGGSGGGGSGGGGSSELTQDPAVSVALGQTVRITCQGDSLRSYYASWYQQKPGQAPVLVIYGKNNRPSGIPDRFSGSSSGNTASLTITGAQAEDEADYYCNSRDSSGNHVVFGGGTKLTVLG
With B5, the binding result in experiment [1] is reported as “binds”; in the experiment with Fas ligand, “no binding”; with TRAIL, “no binding”; in experiment [2] it was “binds”; with TNF-beta, “no binding”; in the experiment with TNF-alpha, “no binding”.

B6: I029F11 (scFv)
scFv: QVQLVQSRAEVKRPGASVKVSCKASGYRFGSYGITWVRQAPGQGLEWMGWISTRYGDTKSAQKVEGRVTLTTDTSTSTAYMELRSLRSDDTAVYYCARDGSYDILTGYYIDNYMDVWGRGTLVTVSSGGGGSGGGGSGGGGSQSVLTQPPSASGTPGQRVTISCSGSSSNIGSNTVNWYQRLPGAAPQLLIYNNDQRPSGIPDRFSGSKSGTSGSLVISGLQSEDEADYYCASWDDSLNGRVFGGGTKLTVLG
In the case of B6, the binding result in experiment [1] is recorded as “binds”; in the experiment with Fas ligand it was “no binding”; with TRAIL, “no binding”; in experiment [2] it was “binds”; with TNF-beta it was “no binding”; with TNF-alpha it was “no binding”.

B7: I018C10 (scFv)
scFv: GVQLVQSGPEVKKPGASVKVSCTASGYTFTSYGVSWVRQAPGQGLEWIGWISAHNGQTKYAEKFQGRVTMTRNTSISTAYMELSSLRSEDTVVYYCARDGSYDILTGYYIDNYMDVWGKGTMVTVSSGGGGSGGGGSGGGGSSELTQDPAVSVALGQTVRITCQGDSLRSYYTNWFQQKPGQAPLLVVYAKNKRPSGIPDRFSGSSSGNTASLTITGAQAEDEADYYCHSRDSSGNHVLFGGGTKLTVLG
For the molecule B7, the binding result in experiment [1] is listed as “binds”; with Fas ligand, “no binding”; in the experiment with TRAIL, “no binding”; in experiment [2] it was “binds”; in the experiment with TNF-beta, “no binding”; with TNF-alpha, “no binding”.

B8: I006D07 (scFv)
scFv: EVQLVESGGGVVQPGGSLRLSCAASGFTVNSYAMHWVRQAPGKGLQWVAVIPYDGSKKYYADSVKGRFTVSRDNSKNTLYLQMNSLRAEDTAVYYCARSHYDILTGLNYWYFDLWGRGTLVTVSSGGGGSGGGGSGGGGSSELTQDPAVSVALGQTVRITCQGDSLRSYYASWYQQKPGQAPVLVIYGKNNRPSGIPDRFSGSSSGNTASLTITGAQAEDEADYYCNSRGSSGNHVVFGGGTKLTVLG
As for B8, the binding result is recorded as “binds” in experiment [1]; “no binding” in the experiment with Fas ligand; “no binding” with TRAIL; “binds” in experiment [2]; “no binding” with TNF-beta; “no binding” with TNF-alpha.

B9: I022D01 (scFv)
scFv: EVNLRESGGGVDQPGRSLRLSCAASGFTFSSYGMHWVRQAPGKGLEWVAVISYDGSNKYYADSVKGRFTISRDNSKNTLYLQMNSLRAEDTAVYYCAKDGYYDILTGYSYYGMDVWGQGPMVAVSSGGGGSGGGGSGGGGSSELTQDPAVSVALGQTVRITCQGDSLRSYYTNWFQQKPGQAPLLVVYAKNKRPSGIPDRFSGSSSGNTASLTITGAQAEDEADYYCNSRDSSGNHVVFGGGTKLTVLG
For the molecule B9, the binding result was “binds” in experiment [1]; “no binding” with Fas ligand; “no binding” in the experiment with TRAIL; “binds” in experiment [2]; “no binding” with TNF-beta; “no binding” in the experiment with TNF-alpha.

B10: I016F02 (scFv)
scFv: GVQLVESGAEVKKPGASVKVSCRTSGYTFTSNSFSWVRQAPGQGLEWMGGIIPIFGTANYAQKLQGRVTITADELTRTVYMDLSSLRSEDTAVYYCATGMGDHYGMDVWGRGTLVTVSSGGGGSGGGGSGGGGSQSVLTQPASVSGSPGQSITISCTGTSSDVGGYNYVSWYQQHPGKAPKLMIYEGSKRPSGVSNRFSGSKSGNTASLTISGLQAEDEADYYCSSYTTRSTRVFGGGTKLTVLG
In the case of B10, the binding result is “binds” in experiment [1]; “no binding” in the experiment with Fas ligand; “no binding” with TRAIL; “binds” in experiment [2]; “no binding” with TNF-beta; “no binding” with TNF-alpha.

For the origin of these results see US20110293610A1 (published 2011).
